The values below come from patent publication US20140363416.

In data set [1] the target is His/TF-tagged-XBP1s (recombinant XBP1s fusion protein purified from E. coli) (UniProt O35426).
Data set [2] relates to GST-ATF2 fusion protein (Cell Signaling).

As to “activated recombinant p38α MAPK (Cell Signaling)”, in data set [1], the “in vitro kinase assay, immunoblotting with phospho-specific antibodies for p-XBP1s^Thr48 and p-XBP1s^Ser61” value was “p38 MAPK directly phosphorylates XBP on Thr48 and Ser61 residues in the in vitro kinase assay”; the “in vitro kinase assay, incorporated 32P (phosphorylation) by autoradiography” value is given as “Incubation of XBP1s with activated recombinant p38 MAPK significantly increased phosphorylation of XBP1s”. Further, in data set [2], the “in vitro kinase assay, phosphorylation of the control substrate” value is “activated recombinant p38 MAPK is fully functional and phosphorylates ATF2”.
